B1: 抗PAD4抗体2-1-47 (antibody, human IgG1, lambda, V domains shown)
VH: EVQLLESGGGLVQPGGSLRLSCAASGFTFSTYAMGWVRQAPGKGLEFVAAIRNDGSWTGYGTPYKTRFTISRDNSKNTLYLQMSSLRAEDTAVYYCAKYTGSSGGSIGAWGQGTLVTVSS
VL: SYELTQPPSVSVSPGQTARITCSGGNRNYYYGWYQQKPGQAPVTVIYANDKRPSGIPERFSGSNSGSTTTLTISGVQAEDEADYYCGTATTGKYVFGGGTKLTVLG
B2: 抗PAD4抗体4-2-25 (antibody, human IgG1, lambda, V domains shown)
VH: EVQLLESGGGLVQPGGSLRLSCAASGFTFSTYAMGWVRQAPGKGLEFVAAIRNDGSWTGYPPPLKGRFTISRDNSKNTLYLQMSSLRAEDTAVYYCAKYTGSSGGSIGAWGQGTLVTVSS
VL: SYELTQPPSVSVSPGQTARITCSGGNRNYYYGWYQQKPGQAPVTVIYANDKRPSGIPERFSGSNSGSTTTLTISGVQAEDEADYYCGTAYTGKYVFGGGTKLTVLG
B3: 抗PAD4抗体3-2-37 (antibody, human IgG1, lambda, V domains shown)
VH: EVQLLESGGGLVQPGGSLRLSCAASGFTFSTYAMGWVRQAPGKGLEFVAAIRNDGSWTGIGYNQKSRFTISRDNSKNTLYLQMSSLRAEDTAVYYCGKYTGSSGGSIGAWGQGTLVTVSS
VL: SYELTQPPSVSVSPGQTARITCSGGNRNYYYGWYQQKPGQAPVTVIYANDKRPSGIPERFSGSNSGSTTTLTISGVQAEDEADYYCGTALTGKYVFGGGTKLTVLG
B4: 抗PAD4抗体3-1-39 (antibody, human IgG1, lambda, V domains shown)
VH: EVQLLESGGGLVQPGGSLRLSCAASGFTFSTYAMGWVRQAPGKGLEFVAAIRNDGSWTGTSVNAKTRFTISRDNSKNTLYLQMSSLRAEDTAVYYCAKYTGSSGGSIGAWGQGTLVTVSS
VL: SYELTQPPSVSVSPGQTARITCSGGNRNYYYGWYQQKPGQAPVTVIYANDKRPSGIPERFSGSNSGSTTTLTISGVQAEDEADYYCGTATTGKYVFGGGTKLTVLG

molecular target: ヒ卜PAD4(Cayman Chemical company、Cat. 10500) (human) (UniProt Q9UM07); experiment: SPR Biacore T200, stored antibody captured on Protein A chip, human PAD4 at 50 nM as analyte
UniProt Q9UM07, sequence (Q9UM07 whole entry): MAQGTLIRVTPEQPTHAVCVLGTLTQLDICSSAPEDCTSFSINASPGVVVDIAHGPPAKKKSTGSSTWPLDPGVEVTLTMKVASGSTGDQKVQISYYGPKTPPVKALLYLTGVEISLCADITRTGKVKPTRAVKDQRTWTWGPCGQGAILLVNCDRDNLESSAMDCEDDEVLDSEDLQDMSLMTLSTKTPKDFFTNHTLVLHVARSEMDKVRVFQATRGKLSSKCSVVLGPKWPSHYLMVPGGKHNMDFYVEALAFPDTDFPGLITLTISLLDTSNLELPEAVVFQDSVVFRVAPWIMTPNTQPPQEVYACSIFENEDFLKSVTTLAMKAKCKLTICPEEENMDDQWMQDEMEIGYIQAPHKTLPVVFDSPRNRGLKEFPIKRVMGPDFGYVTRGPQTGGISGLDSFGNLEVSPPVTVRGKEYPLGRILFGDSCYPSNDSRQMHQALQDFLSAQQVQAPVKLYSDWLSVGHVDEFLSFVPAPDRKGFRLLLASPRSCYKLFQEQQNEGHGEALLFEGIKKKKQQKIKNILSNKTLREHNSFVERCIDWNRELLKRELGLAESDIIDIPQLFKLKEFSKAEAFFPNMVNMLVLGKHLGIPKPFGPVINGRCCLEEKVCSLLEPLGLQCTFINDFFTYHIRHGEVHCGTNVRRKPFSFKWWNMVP

抗原結合活性 (relative antigen binding after 40℃ for 4 weeks against 4℃ for 4 weeks), > 90%:
B1
B2
B3
B4
